Results from article PMC9352680, “A comprehensive thermodynamic model for RNA binding by the Saccharomyces cerevisiae Pumilio protein PUF4”.
Residue numbers refer to the chain shown, from its start. Numbers in names are those of the source.

T1: PUF4 RNA-binding domain (Saccharomyces cerevisiae, UniProt P25339 537-888)
T1 sequence: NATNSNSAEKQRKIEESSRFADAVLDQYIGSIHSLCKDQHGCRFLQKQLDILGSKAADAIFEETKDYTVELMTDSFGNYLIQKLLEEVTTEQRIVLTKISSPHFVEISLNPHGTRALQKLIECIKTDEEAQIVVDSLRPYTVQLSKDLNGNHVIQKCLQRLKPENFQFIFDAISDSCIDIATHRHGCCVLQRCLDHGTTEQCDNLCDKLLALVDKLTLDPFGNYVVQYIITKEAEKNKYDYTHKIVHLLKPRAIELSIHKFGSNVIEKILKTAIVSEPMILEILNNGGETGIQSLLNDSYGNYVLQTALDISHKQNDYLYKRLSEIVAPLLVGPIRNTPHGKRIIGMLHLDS

B1: Id_ii_S2_P3E.2_K3.1_C3.2_[C-2T]_H3.1_A3.1_F3.1_T3.2_[T9A]_[A10C] (ssRNA)
RNA: UUUGAUUAAUAUGAUAUCGUUCUUUCUUUUGUAUAUAACUUCUUUCUCGAUAUCAUAUUAAUCUUU
B2: Id_ii_S2_P3E.2_K3.1_C3.2_[C-2G]_H3.1_A3.1_F3.1_T3.2_[A10T] (ssRNA)
RNA: B1 RNA with U28G, A38U, C39U
B3: Id_ii_S2_P3E.2_K3.1_C3.2_[C-2T]_H3.1_A3.1_F3.1_T3.2_[A10G] (ssRNA)
RNA: B1 RNA with A38U, C39G
B4: Id_ii_S2_P3E.2_K3.1_C3.2_[C-2T]_[T-1A]_H3.1_A3.1_F3.1_T3.2_[T9A]_[A10T] (ssRNA)
RNA: B1 RNA with U29A, C39U
B5: Id_ii_S2_P3E.2_K3.1_C3.2_[C-2T]_H3.1_A3.1_F3.1_T3.2_[T9C]_[A10T] (ssRNA)
RNA: B1 RNA with A38C, C39U
B6: Id_ii_S2_P3E.2_K3.1_C3.2_[C-2T]_H3.1_A3.1_F3.1_T3.2_[A10C] (ssRNA)
RNA: B1 RNA with A38U
B7: Id_ii_S2_P3E.2_K3.1_C3.2_[C-2T]_[T-1C]_H3.1_A3.1_F3.1_T3.2_[A10T] (ssRNA)
RNA: B1 RNA with U29C, A38U, C39U
B8: Id_ii_S2_P3E.2_K3.1_C3.2_[C-2T]_[T-1C]_H3.1_A3.1_F3.1_T3.2_[T9C]_[A10C] (ssRNA)
RNA: B1 RNA with U29C, A38C
B9: Id_ii_S2_P3E.2_K3.1_C3.2_[C-2T]_[T-1A]_H3.1_A3.1_F3.1_T3.2_[T9C]_[A10T] (ssRNA)
RNA: B1 RNA with U29A, A38C, C39U
B10: Id_ii_S2_P3E.2_K3.1_C3.2_[C-2G]_H3.1_A3.1_F3.1_T3.2_[T9A]_[A10G] (ssRNA)
RNA: B1 RNA with U28G, C39G
B11: Id_ii_S2_P3E.2_K3.1_C3.2_[C-2T]_[T-1C]_H3.1_A3.1_F3.1_T3.2_[T9C] (ssRNA)
RNA: B1 RNA with U29C, A38C, C39A
B12: Id_ii_S2_P3E.2_K3.1_C3.2_[C-2T]_H3.1_A3.1_F3.1_T3.2_[T9C]_[A10C] (ssRNA)
RNA: B1 RNA with A38C
B13: Id_ii_S2_P3E.2_K3.1_C3.2_[C-2T]_[T-1G]_H3.1_A3.1_F3.1_T3.2_[A10C] (ssRNA)
RNA: B1 RNA with U29G, A38U
B14: Id_ii_S2_P3E.2_K3.1_C3.2_[C-2T]_[T-1G]_H3.1_A3.1_F3.1_T3.2_[T9C]_[A10C] (ssRNA)
RNA: B1 RNA with U29G, A38C
B15: Id_ii_S2_P3E.2_K3.1_C3.2_[C-2T]_[T-1C]_H3.1_A3.1_F3.1_T3.2_[T9C]_[A10T] (ssRNA)
RNA: B1 RNA with U29C, A38C, C39U
B16: Id_ii_S2_P3E.2_K3.1_C3.2_[C-2T]_H3.1_A3.1_F3.1_T3.2_[T9A]_[A10T] (ssRNA)
RNA: B1 RNA with C39U
B17: Id_ii_S2_P3E.2_K3.1_C3.2_[C-2G]_[T-1C]_H3.1_A3.1_F3.1_T3.2_[A10T] (ssRNA)
RNA: B1 RNA with U28G, U29C, A38U, C39U
B18: Id_ii_S2_P3E.2_K3.1_C3.2_[C-2T]_[T-1G]_H3.1_A3.1_F3.1_T3.2_[T9G]_[A10T] (ssRNA)
RNA: B1 RNA with U29G, A38G, C39U

These binders were tested against T1, PUF4 RNA-binding domain (assay: Mg; RNA-MaP; 20 mM Na-HEPES pH 7.4, 30 mM KOAc, 0.75 mM MgCl2, 0.1% Tween-20, 5% glycerol, 0.1 mg/mL BSA, 2 mM DTT; 25 C; 0.0125-409.6 nM protein). Conditions: tags: N-His6-TEV cleaved; C-SNAP kept, Cy3B-labelled; label: tethered on chip by stalled RNA polymerase.
B1 showed a Kd of 4.14 nM.
B2 gave a Kd of 2.02 nM.
Binder B3 has a Kd of 2.61 nM.
B4 gave a Kd of 14.1 nM.
B5 was tested, and the Kd was 4.94 nM.
B6 gave a Kd of 1.55 nM.
B7 showed a Kd of 1.17 nM.
In the case of B8, the Kd is reported as 3.42 nM.
Work on B9 yielded a Kd of 5.43 nM.
Work on B10 yielded a Kd of 7.87 nM.
Work on B11 yielded a Kd of 7.13 nM.
Work on B12 yielded a Kd of 2.82 nM.
With B13 the Kd was 3.49 nM.
With B14 the Kd was 26.5 nM.
For B15, the Kd was 4.12 nM.
B16 was tested, and the Kd was 4.47 nM.
Binder B17 has a Kd of 1.77 nM.
B18 gave a Kd of 3.09 nM.
For UCUCUUCGUAUUAGUAUCUCUU (ssRNA) [Ib_S1_P5E.1_K5.1_C5.1_H5.1_[T1C]_A5.1_F5.1_[T8G]_T5.1], the Kd was > 2300 nM.
For UCUCUUCAACACUUAUUAGCUCUCUU (ssRNA) [Id_ii_S1_P5E.4_K5.3_C5.2_[T-1A]_H5.3_A5.1_F5.1_T5.2_[T11G]_[A12C]], the Kd was > 2300 nM.
For UCUCUUUGUAUUAUACUCUCUU (ssRNA) [Ic_S1_P5E.1_K5.1_C5.1_H5.1_A5.1_F5.1_[T9A]_[A10C]_T5.1], the Kd was 2.48 nM.
UCUCUUUUUAUUAGUAUCUCUU (ssRNA) [Ib_S1_P5E.1_K5.1_C5.1_H5.1_[G2T]_A5.1_F5.1_[T8G]_T5.1] was tested, and the Kd was > 2300 nM.
UCUCUUCAACACUUAUUAGAUCUCUU (ssRNA) [Id_ii_S1_P5E.4_K5.3_C5.2_[T-1A]_H5.3_A5.1_F5.1_T5.2_[T11G]] was tested, and the Kd was > 2300 nM.
In the case of UCUCUUAGUAUUAGUAUCUCUU (ssRNA) [Ib_S1_P5E.1_K5.1_C5.1_H5.1_[T1A]_A5.1_F5.1_[T8G]_T5.1], the Kd is reported as > 2300 nM.
For UCUCUUCCACACUUAUUAAAUCUCUU (ssRNA) [Id_ii_S1_P5E.4_K5.3_C5.2_[T-1C]_H5.3_A5.1_F5.1_T5.2_[T11A]], the Kd was > 2300 nM.
UCUCUUUGUAUUAUAAUCUCUU (ssRNA) [Ia_S1_P5E.1_K5.1_C5.1_H5.1_A5.1_F5.1_[T9A]_T5.1] showed a Kd of 2.37 nM.
With UCUCUUCAACACUUAUUAUCUCUCUU (ssRNA) [Id_ii_S1_P5E.4_K5.3_C5.2_[T-1A]_H5.3_A5.1_F5.1_T5.2_[A12C]] the Kd was > 2300 nM.
For UCUCUUCUACACUUAUUACCUCUCUU (ssRNA) [Id_ii_S1_P5E.4_K5.3_C5.2_H5.3_A5.1_F5.1_T5.2_[T11C]_[A12C]], the Kd was > 2300 nM.
In the case of UCUCUUCAACACUUAUUACCUCUCUU (ssRNA) [Id_ii_S1_P5E.4_K5.3_C5.2_[T-1A]_H5.3_A5.1_F5.1_T5.2_[T11C]_[A12C]], the Kd is reported as > 2300 nM.
UCUCUUUGUAUUAUAUUCUCUU (ssRNA) [Ib_S1_P5E.1_K5.1_C5.1_H5.1_A5.1_F5.1_[T9A]_[A10T]_T5.1] gave a Kd of 1.1 nM.
